Test: yeast display, Sf9 membrane polyspecificity reagent, FACS + sequencing; frameworks hold sequencing errors
Summary of the method: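 Synthetic nanobody libraries on Saccharomyces cerevisiae BJ5465 were galactose-induced for 36–48 hours, stained 1 hour at 4 °C with 10% biotinylated, detergent-solubilized Sf9 membrane reagent and enriched on streptavidin microbeads. FACS then separated cells into low and high (top ~1%) gates by anti-HA (expression) and streptavidin (reagent binding) fluorescence. Genes were colony-PCR amplified, MiSeq 2 × 250 sequenced and CDR-length filtered. A clone's polyreactivity label is that of its gate of origin.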

| Sequence | polyreactivity (PSR sort gate) |
| --- | --- |
| QVQLVESGGGLVQAVGSLRLSCADSGRLLSYYDMGWYRQAPGKVRELVARLGGTYYADSVKGRFTISRYIAKNTVYLQMNSLKPEDTAVYYCAAEYGYDFLRSYHEYGYWGQGTQVTVSS | low polyreactivity |
| QVQLVESGGGLVQAGGSLRLSCAASGRIFVKYVMGWYRQAPGKERELVAAITYTGGTYYADSVKGRFTISRDTAKNTVYLQMNSLKPEETAVYYCAADYQGSYYSGSYQTWTEYYYWGQGTQVTVSS | high polyreactivity |
| QVQLVESGGGLVQAGGSLRLSSAASGYIFQYTAMGCYRQAPGKVRELVAAIRYRGTSTYYADSVKGRFTISRDNAKNTVYLQRNSLKPEDTAVYYCAADRVPGRGFFRYGYWGQGTQVTVSS | high polyreactivity |
| QVQLVESGGGLVQAGGSLRISCAASGSIFVEYDMGWYRQAPGKERELVADISGTGNTYYADSVKGRFTISRDNAKNTVYLQMNSLKPEDTAVYYCAAGTYYQNYWSPFVWYDYWGQGTQVTVSS | high polyreactivity |
| QVQLVESGGGLVQAGGSLRLSCPASGFIINVYVMGWYRQAPGKERELVAAISGGGSTYYADSVKGRFTISRDNAKNTVSLQMNSLKPEDTAVYYCAAVYYYQNEGYDFWGQGTQVTVSS | low polyreactivity |
| QVQLVESGGGLVQAGGSLRLSCAASGSISVANAMGWYRQAPGKERELVAAITDSGDDTYYADSVKGRFTISRDTAKNTVYLQMNSLKPEDTAVYYCAVEAWSVPPYDYWGQGTQVTVSS | low polyreactivity |
| QVQLVESGAGLVQAGGSLRLSCAASGSILYINTMGWYRQAPGKERELVAAITSSGGSTYYADSVKGRFTISRDNAKNTVDLQMNSLKPEDTAVYYCAAVGYYGGYNYWGQGTQVTVSS | low polyreactivity |
| QVQLVESGGGLVQAGGSLRLSCAASGSTFAIDAMGWDRQAPGQDRELVASISGGSTNYADSVKGRVTISRDKAKNTVDLQRNSLKPEDTAVYYCAARGALQHWYRYDYWGQGTQGTVSS | low polyreactivity |
| QVQLVESGGGLVQAGGSLRLSCAASGSIFLRYAMGWYRQAPGKERELVATITSGGRTKYADSVKGRFTISRDNAKNTVYLQMNSLKPEDTAVYYCNAKTQSLKRSTFNYWGQGTQVTVSS | low polyreactivity |
| QVQLVESGGGLVQAGGSLRLICAASGRTLYLYAMGWSRQAPGKEPELVAAIDWRGTSTYYADSVKGRFTISRDNAKNTVYLQMNSLKPEDTAFYYCNARFRSYLRWYQRDYWGQGTQVTVSS | low polyreactivity |
| QVQLVESGGGLVQAGGSLRLSCAASGFTFRRYAMGWYRQAPGKERELVAVITSTDSTYYADSVKGRFTISRDNAKNTVYFQMYSLKPEDTAVYYCARVYLGPRYAVFIYGYWGQGTQVTVSS | high polyreactivity |
| QCQLVESGGGLVQAGGSLLLSCAASGFIFNRNAMGWSRQAPGKEREFVSAISTLGAGTYYADSVKGRFTISRDNAKNTVYLQMNSLKPEDTAVYYCAADIFRYGYYNRYSKVGYDYWGQGTQVTVSS | high polyreactivity |
| QVQLVESGGGLVQAGGSLRLSCAASGRIFDYYAMGWYRQAPGKERELVAAISSSVGNTYYADSVKGRFTISRDNAKNTVYLQMNSLKPEDTAVYYCADYSYVRSSYEVEYDYWGQGTQVTVSS | low polyreactivity |
| QVQLVESGGGLVQAGGSLRLSCAASGRTIWTYVMGWYRQAPGKERELVAAISRSGSSTYYADSVKGRFTISRDNAKNTVYLQMNSLKPEDTAVYYCAASSPWEQSHDQFYYWGQGTQVTVTS | low polyreactivity |
| QVQLVESGGGLVQAGGSLRLSCAASGSTIGDNAMGWYRQAPGKERELVASISWSGASTYYADSVKGRFTISRDNAKNTVYLQMNSLKPEDTAVYYCAVYYSYYSHLYHLLFSYWGQGTQVTVSS | low polyreactivity |
| QVQLVESGGGLVQAGGSLRLSCAASGFIFGYNAMGWYRQAPGKERELLAAITWIGGTTYYADSVKGRFTISRDNAKNTVYLQMNSLNPEDTAVYYCARQRSYGRYSYSYVYEYWGQGTLVTVSS | high polyreactivity |
| QVQLVESGGGLVQAGGSLRLSCPASGRIFTSYAMGWYRQEPGKERELVAAINRGGSTYYADSVKGRFTISRDNAKNTVYLQMNSLKPEDTAVYYCNASQPYNPEFDYWRQGTQVTVSS | low polyreactivity |
| QVQLVESGGGLVQAGGSLRLSCAASGRIFRYYAMGWYRPATGKERELVAGITRGGTTNYSDSVKGRFTISRDNAKNTVYLQMNSLKPEDTAVYYCAADTRRGIIGYDYWGQGTQVTVSS | high polyreactivity |
| QVQLVESGGGLVQAGGSLRLSCAASGGIVRSNAMGWYRQAPGKERELVAAINRSVRTYYADSVKGRFTISRDNEKNTVYLQMNSLKPEDTAVYYCAAQQGVISRGNYWGQGTQVTVSA | low polyreactivity |
| QVQLVESGGGLVQAGGSLRLSCAASGRTLDVNAMGWYRQAPGKEKELVAAIDWGVGTTYYADSVKGRFTISRDNAKNTVYLQMNSLKPEDTAVYYCSVDVYYSVYGYPVQYYYWGQGNQVTVSS | high polyreactivity |
| QVQLVESGGGLVQAGGSLRLSCAASGRTFYYYAMGWYRQAPGKERELVAAISKSGGSTYYADSVKGRFTISRDNAKNTVYLQMNSLKPEDTAVYYCAALTTHAPHSYNYWGQGTQVTVSS | low polyreactivity |
| QVQLVESGGGLVQAGGSLRLSCAASGRTSGGNAMGWYRQAPGKERELVAAISLRGGGTYYADSVKGRFTISRDNAKNTVYLQMNSLIPEDTAVFYCAAEFTYYGARWGYLGDLDYWGQGTQVTVSS | high polyreactivity |

| Sequence | polyreactivity (PSR sort gate) |
| --- | --- |
| QVQLEESGRGLVQAGGSLRISCAASGRIFWGYAMGWYRQAPRKERELVARITSGGDTYYADSVKGRFTISRDNAKNTVYLQMNSLKPEDTAVYYCAAELRPGYRSSYGLIYDYWGQGTQVTVSS | low polyreactivity |
| QVQLVESGGGLVQAGGSLRLSCAASGTTIQGYAMGWYRQAPGKERELVAAISGSGGTTYYADSVKGRFTISRDNAKNTVYLQMNSLKPEDTAVYYCAAYVFYNFGVYTRGYYYWGQGTQVTVSS | high polyreactivity |
| QVQLVESGGGLVQAGGSLRLSCAASGFIFTQYAMGWYRQAPGKERELVAAITRSGGRTYYADSVKGRFTISRDNAKNTVYLQMNSLIPEDTAVYYCAVDTVTRTVLVYGDRNDSWGQGTQVTVSS | high polyreactivity |
| QFQLVESGGGLVQAGGSLRLSCAASGGTFYVNDMGWYRQAPGKERELVATITYSGTSTYYADSVKGRFTISRDNAKNTVYLQMNSLKPEDTAVYYCATDVLLYFEPVNLDYWGQGTQVTVSS | low polyreactivity |
| QVQLVESGGGLVQAGGSLRLSCAASGLIFDGNAMGWYRPAPGKERELVADITGSSVRTYYADSVKGRFTISRDNAKNTVSLQMNSLIPEDTAVYYCAATYGYLYTGLSRYDYWGQGTQVTVSS | low polyreactivity |
| QVQLVESGRGLVQAGGSLRLSCAASGFTIDYYAIAWYRQAPGKERELVADISSDGSTYADSVKGRFTISRDNAKNTVYLQMNSLKPEDTAVYYCNAYLSKYFRYDYWGQGTQVTVSS | high polyreactivity |
| QVQLVESGGGLVQAGGSLRLSCAASGGIFLPYAMGWYRQAPGKERELVAGITTSGGSTYYADSVKGRFTISRDNAKNTVYLQMNSLKPEDTAVYYCAKKSSLFKHVVRYDYWGQGTQVTVSS | low polyreactivity |
| QVQLVESGGGLVQAGGSLRLSCAASGRIISRYAMGWYRQAPGKERELVAAISRRGGSTYYADSVKGRFTISRDNAKNTVYLQMNSLKPEDTAVYYCAAVRRKTAGGLEDYWGQGTQVTVSS | high polyreactivity |
| QVQLVESGGGLVQAGGILRLSCAASGSIFYAYDKGWYRQAPGKERELVAGISSSDSTYYADSVKGRFTISRDNAKNTVYLQLNSLKPEDTAVYYCAADPVFAAAYIHLYGIYDTWGQGTQVTVSS | low polyreactivity |
| QVQLVESGGGLVQAGGSLRLSCAASGIIFDTYTMGWTRHSPGKERELVAAITRRGSRTYYADSVKGRFTISRDNAKNTVYLQMNSLKREDTAVYYCNAVPRWSYVDEDSWGQGTQVTVSS | high polyreactivity |
| QVQLVESGGGLVQAGGSLRLSCAASGSTFPRYAMGWYRQAPGKERELVAAITYSGGRTYYADSVKGRFTISRDNAKNTVYLQMNSLKPEDTAVYYCAARYGPYRFNPMGYWGQGTQVTVSS | high polyreactivity |
| QVQLVESGGGLVQAGGSLRLSCAASGRTFGHNAMGRYRQAPGKEREFVAAITRRGGSTYYADSVKGRFTISRDNAKNTVYLQMNSLKPEDTAVYYCATRDYVNGPGIFNYWGQGTQVTVSS | low polyreactivity |
| QVQLVESCGGLVQAGGSLRLSSAASGRIFYAYVMGWYRQAPGKERELVADITSSGSTNYADTVKGRFTISRDNAKKTVYLQLISLKQEDTAVFYCAKVPYGYQVRRNFGYWGQGTQVTVSS | low polyreactivity |
| QVQLVESGGGLVQAGGSLRLSCAASGSTFNYYTMGWYRQAPGKERELVAAISGRGSITYYADSVKGRFTISRDNAKNTVYLQMNSLKPEDTAVYYCNARYGRWQGSSGEHDYWGQGTQVTVSS | high polyreactivity |
| QVQLVESGGGLVQAGGSLRLSCAASGRTFGYNVMGWYRQAPGKARELVAGIRYSGGSTYYADSVKGRFTISRDNAKNTVYLQMNSLKPEDTAVYYCHAVDRNQYDYWGQGTQVTVSS | high polyreactivity |
| HVQLVESGGGLVQAGGSLRLSCAASGITLVRYAMGWFRPAPGKERELVAAISSSGGSTYYADSVKGRFTISRDNAKNTVYLQMNSLQPEDTAVYYCNAYVHSRRVEFNYWGQGTQVTVSS | high polyreactivity |
| QVQHVESGGGLVQAGGSLRLSCAASGRTLYRYAMGWSRQAPRKERELVAAIRSGGRTNYADSVKGRFTISRDNAKNTVYLQMNSLKPEDTAVYYCAARTLRYPSTFEYWGQGTQVTVSS | high polyreactivity |
| QVQLVESGGGLVQAGGSLRLSCAASGSIFWSNAMGWYIQAPGKERELVAAITGGGTTNYADSVKGRFTISRDNAKNTVYLQMNSLKPEDTAVVYTVSSAQYDYWGQGTQVTVSS | low polyreactivity |
| QVQLVESGGGFVQAGGSLRLICAASGRIFGYYAMAWYRQAPGQERELVAAINWGGGITYYADSVKGRFTISRDNAKNTVYLQMNSLKPEDTAVYYCATDYKLVYSIYDYWGQGTQVTVSS | low polyreactivity |
| QVQLVESGGGLVQAGGTLSLSCAASGGTFSTNTMGWYRQATGKERELVAAITEGTGNTYYADSVKGRFTISRDNAKNTVYLQMNSLKPEDTAVYYCATAYAVYHVEYGYWGQGTQVTVSS | low polyreactivity |
| QVQLVESGGGLVQAGGSLRLSCADSGSIFNGNTMGWYRQAPGKERELVAAITSGGRTYYADSVKGRFTISRDNAKNTVYLQMNSLKPEDTAVYYCATRNPYYRSYYSYDYWGQGTQVTVSS | high polyreactivity |

— the nanobody polyreactivity screen of Harvey et al. (2022)
